Experiment [1] addresses HLA-A*02:01. Kind of experiment: IEDB peptide-MHC binding, purified MHC/competitive/radioactivity; filed as Kd, often an IC50 or EC50 that approximates it; ≥ and ≤ were set here for values at or beyond the usual limits of such assays.
In experiment [2] the target is HLA-A*02:17. The experiment is described as above.
In experiment [3] the target is HLA-B*08:01. The experiment is described as above.
The target in experiment [4] is HLA-A*32:01. The description is as above.
In experiment [5] the target is HLA-B*58:01. The description is as above.
The target of experiment [6] is HLA-A*02:06. The description is as above.
For experiment [7], the target named is HLA-B*57:01. Described as above.
The target of experiment [8] is HLA-A*02:03. The description is as above.
For experiment [9], the target named is HLA-A*01:01. Kind of experiment: IEDB peptide-MHC binding, purified MHC/direct/fluorescence; filed as Kd, often an IC50 or EC50 that approximates it; ≥ and ≤ were set here for values at or beyond the usual limits of such assays. The note with it: source organism: Escherichia coli O157:H7.
Experiment [10] concerns the target HLA-A*02:01. The experiment is described as above. To be noted: source organism: Escherichia coli O157:H7.
In experiment [11] the target is HLA-A*03:01. The experiment is described as above. The note with it: source organism: Escherichia coli O157:H7.
Experiment [12] has as its target HLA-A*11:01. Described as above. The note with it: source organism: Escherichia coli O157:H7.
In experiment [13] the target is HLA-A*31:01. The description is as above. To be noted: source organism: Escherichia coli O157:H7.
The target of experiment [14] is HLA-A*69:01. The experiment is described as above. The note with it: source organism: Escherichia coli O157:H7.
Experiment [15] deals with HLA-B*27:05. The experiment is described as above. To be noted: source organism: Escherichia coli O157:H7.
The target in experiment [16] is HLA-B*40:01. The experiment is described as above. To be noted: source organism: Escherichia coli O157:H7.
In experiment [17] the target is HLA-B*48:01. The description is as above.
The target of experiment [18] is HLA-B*58:01. The experiment is described as above. The note with it: source organism: Escherichia coli O157:H7.
Experiment [19] deals with HLA-B*15:01. Kind of experiment: IEDB peptide-MHC binding, purified MHC/competitive/fluorescence; filed as Kd, often an IC50 or EC50 that approximates it; ≥ and ≤ were set here for values at or beyond the usual limits of such assays. To be noted: source organism: Escherichia coli str. K-12 substr. DH10B.
Experiment [20] concerns the target HLA-B*15:17. Described as above. To be noted: source organism: Escherichia coli str. K-12 substr. DH10B.
The target in experiment [21] is HLA-B*57:01. Described as above. To be noted: source organism: Escherichia coli str. K-12 substr. DH10B.
Where [22] appears, read: source organism: Dengue virus 2 Jamaica/1409/1983.
Where [23] appears, read: source organism: Dengue virus 4 Dominica/814669/1981.
Where [24] appears, read: source organism: Dengue virus 1 Singapore/S275/1990.
Setting [25] is: source organism: Dengue virus 4 Philippines/H241/1956.
Setting [26] is: source organism: Dengue virus 1 Brazil/97-11/1997.

Our source for the Kd values is the Immune Epitope Database (IEDB).

For orientation: Kd means the concentration at which binding is half-saturated. As to ILLTAVAPSM, the Kd is 2490 nM in experiment [1] (setting [22]), 5960 nM in experiment [2] (setting [22]) and 8710 nM in [3] (setting [22]).

In the case of KTQAIDGEF, the Kd in experiment [4] (setting [23]) was 640 nM; in experiment [5] (setting [23]), 287 nM.

As for MASSVLLWMA, the Kd stood at 90.6 nM in experiment [6] (setting [24]), 859 nM in experiment [7] (setting [24]) and 223 nM in experiment [5] (setting [24]).

KTQRSGALW: the dissociation constant Kd in experiment [7] (setting [25]) is 105 nM; in experiment [5] (setting [25]), 6.11 nM.

As for KLARASFIEV, the Kd in experiment [1] (setting [24]) stood at 14.9 nM; in [8] (setting [26]), 20.1 nM; in experiment [6] (setting [26]), 22 nM; in experiment [2] (setting [24]) it was 705 nM.

Consider AVASGLLWV, for which the equilibrium dissociation constant (Kd) in experiment [1] (setting [25]) was 18.9 nM; in [8] (setting [25]), 1.89 nM; in experiment [6] (setting [25]) it was 11.7 nM; in experiment [2] (setting [25]) it was 3300 nM.

For FLNEDHWFS, the Kd in experiment [1] (setting [22]) stood at 4 nM; in experiment [2] (setting [22]), 185 nM.

Turning to VSRDFDDVY, the Kd is 18600 nM in experiment [9]; no less than 20000 nM in experiment [10]; no less than 20000 nM in experiment [11]; no less than 20000 nM in experiment [12]; no less than 20000 nM in experiment [13]; no less than 20000 nM in experiment [14]. Also, the Kd in [15] was no less than 20000 nM; in [16] it was no less than 20000 nM; in experiment [17] (source organism: Escherichia coli O157:H7), no less than 20000 nM; in [18], no less than 20000 nM; in experiment [19], 244 nM; in experiment [20], no less than 20000 nM. This sequence also yielded a Kd in experiment [21] of 792 nM.

On to MSSEGAWKHA, for which the Kd amounted to 134 nM in experiment [7] (setting [25]) and 254 nM in [5] (setting [25]).

Regarding IMAVGMVSI, the Kd in experiment [8] (setting [22]) was found to be 8.29 nM; in experiment [2] (setting [22]), 785 nM; in experiment [4] (setting [22]) it was 20.4 nM.

As to FLDLPLPWL, the values for the Kd in experiment [1] (setting [22]), in experiment [6] (setting [22]) and in experiment [2] (setting [22]) were 10.3 nM, 127 nM and 9.46 nM, respectively.

Consider GLLFMILTV, for which the Kd in experiment [1] (setting [24]) is 42.9 nM; in experiment [2] (setting [24]) it was 14300 nM; in [4] (setting [26]) it was no less than 77800 nM.

In the case of LMLLALIAVL, the Kd in experiment [1] (setting [24]) is 94.7 nM; in experiment [2] (setting [24]) it was 2170 nM; in [3] (setting [26]), 2250 nM.

For GQPIPIAGL, the Kd in experiment [17] (source organism: Mycobacterium tuberculosis C) was 299 nM.

ERSWNSGHEW: in [5] (setting [22]), the Kd worked out at 135 nM.

For the sequence FLAHYIGTSL, the Kd in [8] (source organism: Dengue virus 3 Martinique/1243/1999) came to 3.3 nM; in [2] (source organism: Dengue virus 3 China/80-2/1980), 22.5 nM.
